# According to patent publication US6927041B2, “Human neuropeptide Y-like G protein-coupled receptor” (Bayer Corporation, priority 2000, dated 2005):
# Where no end group is shown, it is not given here.
# Biological target: T1, human NPY-like GPCR (Homo sapiens, UniProt Q96P65)
# T1 construct: expressed in transfected cells; host or cells: HEK293 (human embryonic kidney 293) cells, membrane preparation
# T1 sequence (Q96P65 1-431): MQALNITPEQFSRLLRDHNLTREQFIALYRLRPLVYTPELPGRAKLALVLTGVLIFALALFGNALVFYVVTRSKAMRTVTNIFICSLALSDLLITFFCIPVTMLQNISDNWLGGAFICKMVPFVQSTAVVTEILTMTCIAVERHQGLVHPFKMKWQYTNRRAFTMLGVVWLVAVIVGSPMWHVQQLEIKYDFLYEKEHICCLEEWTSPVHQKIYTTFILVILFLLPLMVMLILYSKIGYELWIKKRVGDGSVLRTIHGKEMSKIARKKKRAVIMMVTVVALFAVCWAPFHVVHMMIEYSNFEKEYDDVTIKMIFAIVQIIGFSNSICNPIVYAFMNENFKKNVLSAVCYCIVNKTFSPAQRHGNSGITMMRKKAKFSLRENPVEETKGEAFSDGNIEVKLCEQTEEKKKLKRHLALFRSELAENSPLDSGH
# Experiment: Binding affinity of known peptides for the human NPY-like GPCR
# Conditions: human neuropeptide Y-like G protein-coupled receptor (SEQ ID NO:2); qualitative statement
# Method: Human embryonic kidney 293 cells transfected with a polynucleotide that expresses human NPY-like GPCR are scraped from a culture flask into 5 ml of Tris HCl, 5 mM EDTA, pH 7.5, and lysed by sonication. Cell lysates are centrifuged at 1000 rpm for 5 minutes at 4° C. The supernatant is centrifuged at 30,000×g for 20 minutes at 4° C. The pellet is suspended in binding buffer containing 50 mM Tris HCl, 5 mM MgSO4, 1 mM EDTA, 100 mM NaCl, pH 7.5, supplemented with 0.1% BSA, 2 μg/ml aprotinin, […], and 10 μg/ml phosphoramidon. Optimal membrane suspension dilutions, defined as the protein concentration required to bind less than 10% of the added radioligand, are added to 96-well polypropylene microtiter plates containing ^125I-labeled ligand or test compound, non-labeled peptides, and binding buffer to a final volume of 250 μl.
# In equilibrium saturation binding assays, membrane preparations are incubated in the presence of increasing concentrations (0.1 nM to 4 nM) of ^125I-labeled ligand or test compound (specific activity 2200 Ci/mmol). The binding affinities of different test compounds are determined in equilibrium competition binding assays, using 0.1 nM ^125I-peptide in the presence of twelve different concentrations of each test compound.
# Binding reaction mixtures are incubated for one hour at 30° C. […] Radioactivity is measured by scintillation counting, and data are analyzed by a computerized non-linear regression program.
# Non-specific binding is defined as the amount of radioactivity remaining after incubation of membrane protein in the presence of 100 nM of unlabeled peptide. Protein concentration is measured by the Bradford method using Bio-Rad Reagent, with bovine serum albumin as a standard. A test compound which […] the radioactivity of membrane protein by at least 15% relative to radioactivity of membrane protein that was not incubated with a test compound is identified as a compound which binds to a human NPY-like GPCR polypeptide.
row,binding affinity for the receptor,Substance
1,do not appear to have binding affinity,Neuropeptide Y
2,do not appear to have binding affinity,"orexin-A (QPLPDCCRQKTCSCRLYELLHGAGNHAAGILTL; ends and bridges not checked; cysteine pairing not given here; UniProt O43612 34-66, looked up)"
3,do not appear to have binding affinity,peptide YY: peptide that stimulates the Y1 receptor
